Reference: patent US6348573B1, “Compositions and methods for identifying apoptosis signaling pathway inhibitors and activators” (The Regents of the University of Michigan, priority 1998, dated 2002)
Read-outs that look alike come from different tables or passages of the source. Peptide text beside a SMILES is read from it. * marks the point of attachment. Cbz = O=C(OCc1ccccc1)*; CH2F = FC*

How the values were obtained:
293T cells [1] = assay: Apoptosis assay, CIDE transfection; assay type: cell-based, human
Description: Apoptosis Assays, fluorescence staining of nuclear DNA and DNA fragmentation assay: 5×10^5 293T cells were co-transfected with 0.2 μg of pcDNA3-β-gal plus each expression plasmid in triplicate by the calcium phosphate method as reported [N. Inohara et al, “CLARP, a death effector domain-containing protein interacts with caspase-8 and regulates apoptosis,” Proc. Natl. Acad. Sci. USA 94:10717-10722 (1997a)].
MCF7 were cotransfected with vector control or CIDE-A and β-galactosidase-expressing reporter construct by Lipofectamine (Gibco BRL) according to the manufacturer's instructions. In some experiments, 20 μM zVAD-fmk (benzyloxycarbonyl-Val-Ala-Asp-(OMe)-fluoromethylketone), zFA-fmk (benzyloxycarbonyl-Phe-Ala-(OMc)-fluoromethylketone) and zDEVD-fmk (benzyloxycarbonyl-Asp-Glu-Val-Asp-(OMe)-fluoromethylketone) were added into medium at 8 hr after transfection. zFA-fmk, zVAD-fmk and zDEVD-fmk were obtained from Enzyme Systems. At 24 hours after transfection, cells were fixed, stained for β-galactosidase as described [N. Inohara et al., “CLARP, a death effector domain-containing protein interacts with caspase-8 and regulates apoptosis,” Proc. Natl. Acad. Sci. USA 94:10717-10722 (1997a)] and assayed for morphological features of apoptosis. At least 300 hundred blue-staining cells were counted. Statistical significance was determined by one-way ANOVA followed by Student-Neuman-Keuls post-doc comparisons.
Nuclear staining with acridine-orange was performed as described [N. Inohara et al., “harakiri, a novel regulator of cell death, encodes a protein that activates apoptosis and interacts selectively with survival-promoting proteins Bcl-2 and Bcl-XL.,” EMBO J. 16:1686-1694 (1997b)]. Genomic DNA was extracted and analyzed for DNA fragmentation as described [X. Liu et al., “Apaf-1, a human protein homologous to C. elegans CED-4, participates in cytochrome c-dependent activation of caspase-3,” Cell 90:405-413 (1997)].

293T cells [2] = assay: Apoptosis assay, RICK co-transfection; assay type: cell-based, human; conditions: for caspase-8-induced apoptosis potentiated by RICK: 293T cells, zVAD-fmk 20 μM added at 8 hrs after transfection, p35 by expression plasmid
Description: The total amount of transfected plasmid DNA was adjusted with pcDNA3 plasmid to be the same within individual experiments. After transfection, 293T cells were harvested at different times and lysed with 0.2% NP-40 isotonic lysis buffer [N. Inohara et al., Proc. Natl. Acad. Sci. U.S.A. 94:10717-10722 (1997)]. The B lymphocyte-derived BJAB cell line was stably trasnfected by electroporation with pcDNA3 or pcDNA3-Flag-RICK (K38M). After selection with […] (1 μg/ml), bulk cell lines were tested for RICK protein expression with anti-Flag antibody by flow cytometric analysis. For immunoprecipitation, 1 mg of soluble protein was incubated with 10 μg/ml of polyclonal anti-Flag, anti-myc or control antibody overnight at 4° C. and tagged proteins were immunoprecipitated with Protein A-Sepharose 4B (Zymed Laboratories Inc.). Immunoprecipitated proteins or total lysates were subjected to 12% SDS-polyacrylamide electrophoresis and immunoblotted with monoclonal antibodies (mAb) to HA (Boeringer Mannheim) or Flag (Kodak).
Apoptosis Assays: 5×10^5 293T cells were co-transfected with 0.2 μg of pcDNA3-β-gal plus each expression plasmid in triplicate by the calcium phosphate method as reported [N. Inohara et al., Proc. Natl. Acad. Sci. U.S.A. 94:10717-10722 (1997)]. In some experiments, 20 μM of the caspase inhibitor zVAD-fmk (Enzyme Systems Products) or 12.5 μl of medium from […] cells producing Fas ligand (Immunex Corporation, Seattle, Wash.) was added at 8 hrs after transfection. At 18 or 24 hours after transfection, cells were fixed, stained for β-galactosidase as described [N. Inohara et al., Proc. Natl Acad. Sci. U.S.A. 94:10717-10722 (1997)] and assayed for morphological features of apoptosis. At least 300 hundred blue-staining cells were counted. BJAB apoptosis induced by anti-Apol mAb was determined by flow cytometric analysis of nuclei stained with propidium iodide as described [R. Merino et al., J. Immunol. 155:3830-3838 (1995)]. Statistical significance was determined by one-way ANOVA followed by Student-Neuman-Keuls post-doc comparisons.

293T cells [3] = assay: β-galactosidase apoptosis assay, ARC co-transfection; assay type: cell-based, human
Description: Briefly, 2 μg of pcDNA3 or pcDNA3-ARC-Flag or -HA was co-transfected with 3 μg of pcDNA3 or caspase expression plasmids. Total amount of transfected plasmid DNA was always 5 μg. 293T cells were harvested after 22 hr and lysed with 0.2% NP-40 isotonic lysis buffer [Z. N. Oltvai et al., Cell 74:609-619 (1993)]. For immunoprecipitation, […] of soluble protein was incubated with 10 μg/ml of polyclonal anti-Flag, monoclonal anti-AU1 or polyclonal anti-HA antibody for 2 hr at 4° C. and tagged proteins were immunoprecipitated with Protein A-Sepharose 4B (Zymed Laboratories Inc., San Francisco, Calif.). Immunoprecipitates were subjected to 12% SDS-polyacrylamide electrophoresis and immunoblotted with anti-Flag, anti-AU1 or anti-HA antibodies. β-galactosidase apoptosis assay and Caspase-8 enzymatic assay: 5×10^5 293T cells were transfected with 0.3 μg of pcDNA3-β-gal plus each expression plasmid in triplicate. Cells were fixed 16 hrs after transfection, stained for β-galactosidase and assayed for morphological features of apoptosis [M. Muira et al., Cell 75:653-660 (1993)]. Statistical significance was determined by one-way ANOVA followed by Student-Neuman-Keuls post-doc comparisons. For caspase-8 enzymatic assay, 1.5×10^6 human 293T cells were co-transfected with pcDNA3, pcDNA3-ARC-Flag, pcDNA3-caspase-8 and pcDNA3-caspase-8-mt by a calcium phosphate method. Total amount of transfected plasmid DNA was always 2.5 μg. 293T cells were harvested 18hr after transfection and lysed with 0.2% NP-40 isotonic lysis buffer. Tagged proteins were immunoprecipitated and caspase activity was measured as described [N. Inohara et al., Proc. Natl. Acad. Sci. USA 94:10717-10722 (1997)].

[4] = molecular target: T1, Flag-tagged RICK (RIP-like interacting CLARP kinase), pcDNA3-Flag-RICK (human, UniProt O43353 11-540, limits assumed); assay: anti-Flag immunoprecipitation from co-transfected 293T cells, anti-HA immunoblot
T1 construct: Entire open reading frame of RICK, expressed in 293T cells; also called CIPERK; Flag-CIPERK; not shown: N-terminal Flag tag
T1 sequence (O43353 other isoform, or with tags, fused parts or gaps limits assumed): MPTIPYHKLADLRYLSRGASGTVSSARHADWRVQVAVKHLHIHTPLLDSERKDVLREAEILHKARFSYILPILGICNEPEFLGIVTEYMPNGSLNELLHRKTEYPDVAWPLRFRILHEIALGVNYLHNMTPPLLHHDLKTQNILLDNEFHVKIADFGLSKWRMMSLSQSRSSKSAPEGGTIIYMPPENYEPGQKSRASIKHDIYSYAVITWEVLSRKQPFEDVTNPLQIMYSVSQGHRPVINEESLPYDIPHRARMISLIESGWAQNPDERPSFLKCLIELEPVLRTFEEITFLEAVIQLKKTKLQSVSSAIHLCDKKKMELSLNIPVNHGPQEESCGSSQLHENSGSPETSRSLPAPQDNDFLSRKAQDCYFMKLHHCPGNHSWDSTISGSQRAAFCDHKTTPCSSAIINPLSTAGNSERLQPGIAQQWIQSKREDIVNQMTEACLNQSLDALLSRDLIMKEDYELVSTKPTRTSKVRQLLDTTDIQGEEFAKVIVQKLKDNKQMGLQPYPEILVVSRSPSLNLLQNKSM

COC(=O)CC[C@H](NC(=O)[C@H](CC(=O)OC)NC(=O)OCc1ccccc1)C(=O)N[C@H](C(=O)N[C@@H](CC(=O)OC)C(=O)CF)C(C)C [zDEVD-fmk, benzyloxycarbonyl-Asp-Glu-Val-Asp-(OMe)-fluoromethylketone, reference compound]
killing activity of CIDE-A in presence of caspase inhibitors (293T cells [1]): unaffected

COC(=O)CC(NC(=O)C(C)NC(=O)C(NC(=O)OCc1ccccc1)C(C)C)C(=O)CF (stereo not drawn) [zVAD-fmk, benzyloxycarbonyl-Val-Ala-Asp-(OMe)-fluoromethylketone, reference compound] (Cbz-Val-Ala-Asp(OMe)-CH2F; configuration not given here)
caspase-8-induced apoptosis potentiated by RICK (293T cells [2]): inhibited
apoptosis induced by caspase-8 (293T cells [1]; 293T cells, control experiment, same concentration (20 μM)): inhibited
killing activity of CIDE-A in presence of caspase inhibitors (293T cells [1]; 293T cells, peptide inhibitors 20 μM added at 8 hr after transfection, CrmA by plasmid): unaffected

B1: CIDE-A (108-200): CIDE-A mutant containing the C-terminal half (protein, UniProt O70302 108-200, looked up, fragment)
chain: WTPGSKYVPVCKQPKKSGIARVTFDLYRLNPKDFLGCLNVKATMYEMYSVSYDIRCTSFKAVLRNLLRFMSYAAQMTGQFLVYAGTYMLRVLG
induction of apoptosis (killing) of 293T cells by expression (293T cells [1]; 293T cells): capable of inducing apoptosis
killing activity compared with wild-type CIDE-A (293T cells [1]; 293T cells): greater

B2: deletion mutant missing the C-terminal 165 amino acids: RICK deletion mutant missing the C-terminal 165 amino acids that span the CARD domain (protein, UniProt O43353 1-365, looked up, fragment)
chain: MNGEAICSALPTIPYHKLADLRYLSRGASGTVSSARHADWRVQVAVKHLHIHTPLLDSERKDVLREAEILHKARFSYILPILGICNEPEFLGIVTEYMPNGSLNELLHRKTEYPDVAWPLRFRILHEIALGVNYLHNMTPPLLHHDLKTQNILLDNEFHVKIADFGLSKWRMMSLSQSRSSKSAPEGGTIIYMPPENYEPGQKSRASIKHDIYSYAVITWEVLSRKQPFEDVTNPLQIMYSVSQGHRPVINEESLPYDIPHRARMISLIESGWAQNPDERPSFLKCLIELEPVLRTFEEITFLEAVIQLKKTKLQSVSSAIHLCDKKKMELSLNIPVNHGPQEESCGSSQLHENSGSPETSRSLP
apoptosis of 293T cells induced by Fas, Fas plus FasL or caspase-8 (293T cells [2]; co-expression with RICK deletion mutants): did not enhance apoptosis

B3: truncated form of ARC: truncated form of ARC that expressed the CARD domain (amino acid 1-106) (protein, UniProt O60936 1-106, looked up, fragment)
chain: MGNAQERPSETIDRERKRLVETLQADSGLLLDALLARGVLTGPEYEALDALPDAERRVRRLLLLVQGKGEAACQELLRCAQRTAGAPDPAWDWQHVGPGYRDRSYD
ability to suppress apoptosis induced by caspase-4, compared with full length ARC (293T cells [3]): no significant difference
ability to suppress apoptosis induced by caspase-8, compared with full length ARC (293T cells [3]): no significant difference

B4: baculovirus p35: broad-based caspase inhibitor protein of baculovirus, expressed from plasmid (protein, UniProt P08160 1-299, looked up)
Early 35 kDa protein: MCVIFPVEIDVSQTIIRDCQVDKQTRELVYINKIMNTQLTKPVLMMFNISGPIRSVTRKNNNLRDRIKSKVDEQFDQLERDYSDQMDGFHDSIKYFKDEHYSVSCQNGSVLKSKFAKILKSHDYTDKKSIEAYEKYCLPKLVDERNDYYVAVCVLKPGFENGSNQVLSFEYNPIGNKVIVPFAHEINDTGLYEYDVVAYVDSVQFDGEQFEEFVQSLILPSSFKNSEKVLYYNEASKNKSMIYKALEFTTESSWGKSEKYNWKIFCNGFIYDKKSKVLYVKLHNVTSALNKNVILNTIK
caspase-8-induced apoptosis potentiated by RICK (293T cells [2]): inhibited

B5: CIDE-A (1-107): CIDE-A mutant containing the N-terminal half with homology to DFF45 (protein, UniProt O70302 1-107, looked up, fragment)
chain: METARDYAGALIRPLTFMGLQTKKVLLTPLIHPARPFRVSNHDRSSRRGVMASSLQELISKTLDVLVITTGLVTLVLEEDGTVVDTEEFFQTLRDNTHFMILEKGQK
induction of apoptosis (killing) of 293T cells by expression (293T cells [1]; 293T cells): did not
inhibition of CIDE-A-induced apoptosis by DFF45 (293T cells [1]; 293T cells, co-expression): antagonized

B6: human caspase-2, epitope-tagged (enzyme, UniProt P42575 18-452, looked up)
chain: MAADRGRRILGVCGMHPHHQETLKKNRVVLAKQLLLSELLEHLLEKDIITLEMRELIQAKVGSFSQNVELLNLLPKRGPQAFDAFCEALRETKQGHLEDMLLTTLSGLQHVLPPLSCDYDLSLPFPVCESCPLYKKLRLSTDTVEHSLDNKDGPVCLQVKPCTPEFYQTHFQLAYRLQSRPRGLALVLSNVHFTGEKELEFRSGGDVDHSTLVTLFKLLGYDVHVLCDQTAQEMQEKLQNFAQLPAHRVTDSCIVALLSHGVEGAIYGVDGKLLQLQEVFQLFDNANCPSLQNKPKMFFIQACRGDETDRGVDQQDGKNHAGSPGCEESDAGKEKLPKMRLPTRSDMICGYACLKGTAAMRNTKRGSWYIEALAQVFSERACDMHVADMLVKVNALIKDREGYAPGTEFHRCKEMSEYCSTLCRHLYLFPGHPPT
notes: also called AU1-tagged caspase-2; not shown: lette
binding result [4]: no binding

B7: caspase-3, epitope-tagged (enzyme, UniProt P42574 1-277, looked up)
chain: MENTENSVDSKSIKNLEPKIIHGSESMDSGISLDNSYKMDYPEMGLCIIINNKNFHKSTGMTSRSGTDVDAANLRETFRNLKYEVRNKNDLTREEIVELMRDVSKEDHSKRSSFVCVLLSHGEEGIIFGTNGPVDLKKITNFFRGDRCRSLTGKPKLFIIQACRGTELDCGIETDSGVDDDMACHKIPVEADFLYAYSTAPGYYSWRNSKDGSWFIQSLCAMLKQYADKLEFMHILTRVNRKVATEFESFSFDATFHAKKQIPCIVSMLTKELYFYH
notes: also called pcDNA3-caspase-3-Flag; not shown: position and
binding result [4]: no binding
